These results are taken from patent publication US20240043820.

For data set [1], the target named is SpCas9 Mut 2.2 (TurboCas9) V842L,Q844R,F846Y,L847M,I852F (Streptococcus pyogenes) (UniProt Q99ZW2). The experiment in a line: cell_activity. The note with it: HEK293T; 5% alleles unedited vs 36% for WT; PAM not stated.
Data set [2] has as its target SpCas9 Mut 4110 N767E,Q771R,K772Q,K775D,R780K,Q844R,L847M,K848T,D850N,I852F,K913E,G915R,F916W,I917V,V922M (Streptococcus pyogenes) (UniProt Q99ZW2). The experiment in a line: cell_activity. The conditions noted are these: yeast survival assay; PAM not stated.

VEGFA gRNA ; VEGFA target site: in data set [1], the activity (fold vs WT SpCas9) was 1.5.
As to ADE2 gRNA ; ADE2 target site, the activity (fold vs WT SpCas9) in data set [2] was determined as 2.
On the same count and under the same terms, the result for HIS3 gRNA ; HIS3 target site reads 3.9.
